# Measured values from patent publication US20010029022A1.
# Biological target: CDK2 kinase complex (cyclin not given) (UniProt P24941)
# Assay: cell-based or functional assay
Substance,"induced kinase activity, percent of that by full length E7",relative kinase activity compared to full length E7,"CDK2 activation, percent of that of full length E7 (one experiment)","CDK2 activation, percent of that of full length E7 (repeat experiment)",relative kinase activity compared to activity in the presence of full length E7,% Control Activation of CDK2,"% Control Activation of CDK2, Exp. 1","% Control Activation of CDK2, Exp. 2"
GST-16E7 (16-38) (from UniProt P08515 1-218; P03129 16-38),53%,–,–,–,–,–,–,–
GST-16E7(1-15) (from UniProt P03129 1-15),–,15%,–,–,–,–,–,–
GST-16E7(1-27) (from UniProt P03129 1-27),–,–,28.6%,52%,–,–,–,–
GST-16E7(1-38) (from UniProt P03129 1-38),–,–,–,–,72%,–,–,–
GST-16E7(1-48) (from UniProt P03129 1-48),–,–,–,–,73.2%,–,–,–
GST-16E7(1-69) (from UniProt P03129 1-69),–,–,–,–,82.5%,–,–,–
GST-16E7(1-87) (from UniProt P03129 1-87),–,–,–,–,76.7%,–,–,–
GST-E7 (20-48) (from UniProt P03129 20-48),33%,–,–,–,–,–,–,–
GST-HPV16 E7 ?9-13 (from UniProt P03129 1-8; P03129 14-98),–,–,–,–,–,90%,–,–
"GST-HPV16 E7 ?9-13, ?A34-37 (from UniProt P03129 1-8; P03129 14-33; P03129 38-98)",–,–,–,–,–,72%,–,–
"GST-HPV16 E7 ?12; ?24, 26 (from UniProt P03129 1-98)",–,–,–,–,–,–,85.2%,93.5%
"GST-HPV16 E7 ?12; ?24, 26; ?31, 32 (from UniProt P03129 1-98)",–,–,–,–,–,–,–,83.1%
GST-HPV16 E7 ?13-15 (from UniProt P03129 1-12; P03129 16-98),–,–,–,–,–,76%,–,–
GST-HPV16 E7 ?22-26 (from UniProt P03129 1-21; P03129 27-98),–,–,–,–,–,85%,–,–
"GST-HPV16 E7 ?22-26, ?31-37 (from UniProt P03129 1-21; P03129 27-30; P03129 38-98)",–,–,–,–,–,72%,–,–
"GST-HPV16 E7 ?24, 26; ?31, 32 (from UniProt P03129 1-98)",–,–,–,–,–,–,88.2%,95.6%
"GST-HPV16 E7 ?24, 26; ?31, 32; ?91 (from UniProt P03129 1-98)",–,–,–,–,–,–,–,70.6%
"GST-HPV16 E7 ?24, 26; ?91 (from UniProt P03129 1-98)",–,–,–,–,–,–,69.4%,86.4%
GST-HPV16 E7 ?31-37 (from UniProt P03129 1-30; P03129 38-98),–,–,–,–,–,80%,–,–
GST-HPV16 E7 ?34-37 (from UniProt P03129 1-33; P03129 38-98),–,–,–,–,–,80%,–,–
"GST-HPV16 E7 C24, E26→S24, D26 (from UniProt P03129 1-98)",–,–,–,–,–,–,86.7%,81.3%
GST-HPV16 E7 C91→W91 (from UniProt P03129 1-98),–,–,–,–,–,–,81.7%,78.7%
GST-HPV16 E7 M12→L12 (from UniProt P03129 1-98),–,–,–,–,–,–,96.7%,–
"GST-HPV16 E7 S31, S32→G31, G32 (from UniProt P03129 1-98)",–,–,–,–,–,–,77.1%,–

# Biological target: cyclin A/CDK2 complex (UniProt P20248)
# Assay: cell-based or functional assay
Substance,"activation of cyclinA/CDK2, percent of full length E7","activation of cyclinA/CDK2, percent of full length E7 (repeat experiment)","activation of cyclinA/CDK2, percent of full length GST-HPV 16 E7"
GST-HPV16-E7(9-98) (from UniProt P03129 9-98),64%,–,–
GST-HPV16-E7(16-98) (from UniProt P03129 16-98),53%,–,–
GST-HPV16-E7(39-98) (from UniProt P03129 39-98),–,18%,28.6%
